Among the data in paper doi:10.1101/2025.01.23.634444 are stoichiometry N values, retold here.

This assay concerns the target VraS-H6x (recombinant full-length histidine kinase VraS of Staphylococcus aureus with C-terminal H6x tag) (Staphylococcus aureus USA300-TCH1516). Nature of the assay: SEC.

VraS-H6x (recombinant full-length histidine kinase VraS of Staphylococcus aureus with C-terminal H6x tag) (enzyme), sequence (Q5HEN9 whole entry): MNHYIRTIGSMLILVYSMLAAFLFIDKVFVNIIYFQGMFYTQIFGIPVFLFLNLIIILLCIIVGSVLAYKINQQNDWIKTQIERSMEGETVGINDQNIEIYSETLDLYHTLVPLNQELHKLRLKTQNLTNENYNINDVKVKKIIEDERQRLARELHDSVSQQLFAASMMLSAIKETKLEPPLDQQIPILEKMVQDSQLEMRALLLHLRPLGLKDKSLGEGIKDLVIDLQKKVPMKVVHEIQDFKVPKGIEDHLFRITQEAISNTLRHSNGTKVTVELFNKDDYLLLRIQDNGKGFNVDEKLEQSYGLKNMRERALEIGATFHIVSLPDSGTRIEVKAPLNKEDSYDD

Turning to “VraS-H6x (recombinant full-length histidine kinase VraS of Staphylococcus aureus with C-terminal H6x tag) (enzyme)”, the stoichiometry N amounted to 2.
